Reference: patent US20230242634A1

Molecular target: human TNF-α (human) (UniProt P01375)
Test: cell-based or functional assay

Chain of UniProt P01375 (P01375 77-233 limits assumed): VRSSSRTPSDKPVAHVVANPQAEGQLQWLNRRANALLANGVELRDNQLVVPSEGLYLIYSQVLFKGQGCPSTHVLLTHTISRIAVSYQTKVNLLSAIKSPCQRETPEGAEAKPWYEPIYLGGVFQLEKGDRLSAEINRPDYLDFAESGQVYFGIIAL

## TA001 (the original Adalimumab) (antibody)
  IC50 (M), TNF-α-mediated killing of L929 cells (CCK-8): 1.48e-08 M
